Here are results for two molecules from article PMC6975927.

In test [1] the target is SCF^βTRCP (CUL1-RBX1 with full-length βTRCP2 (FBW11)-SKP1 complex) (human) (UniProt Q13616).
The target in test [2] is SCF^FBW7 (CUL1-RBX1 with FBW7(263-C-terminus)-SKP1 complex) (human) (UniProt Q13616).

Regarding “UBE2D3 (from UniProt P61077 1-147) (enzyme)”, in test [1], the KM of UBE2D3 in multi-turnover ubiquitylation of 32P-labeled β-Catenin peptide by SCF^βTRCP was 0.488 µM. Further, in test [2], the KM of UBE2D3 in multi-turnover ubiquitylation of 32P-labeled Cyclin E peptide by SCF^FBW7 was 1.67 µM.

B1: UBE2G1 (enzyme)
chain: MTELQSALLLRRQLAELNKNPVEGFSAGLIDDNDLYRWEVLIIGPPDTLYEGGVFKAHLTFPKDYPLRPPKMKFITEIWHPNVDKNGDVCISILHEPGEDKYGYEKPEERWLPIHTVETIMISVISMLADPNGDSPANVDAAKEWREDRNGEFKRKVARCVRKSQETAFE
In the case of B1, in test [2], the KM of UBE2G1 in multi-turnover ubiquitylation of 32P-labeled mono-ubiquitylated Cyclin E peptide (Ub-Cyclin E) by SCF^FBW7 stood at 1.3 µM.
